Results on two substances are retold here after article PMC4073121.

Test [1] has as its target bfloGFPc1, green fluorescent protein of Amphioxus (Branchiostoma floridae) (Branchiostoma floridae). The test is described as follows: SEC; size exclusion chromatography of the purified protein (Fig. S1); column and buffer not told. On the technique in general: Size exclusion chromatography separates by hydrodynamic size, large species first.
The target of test [2] is bfloGFPa1, green fluorescent protein of Amphioxus (Branchiostoma floridae) (Branchiostoma floridae). Described as above.

In general, stoichiometry N refers to the number of molecules, sites or subunits per partner or assembly. For “bfloGFPc1, green fluorescent protein of Amphioxus (Branchiostoma floridae) (natural protein)”, the stoichiometry N in test [1] stood at 2.

As for “bfloGFPa1, green fluorescent protein of Amphioxus (Branchiostoma floridae) (natural protein)”, the stoichiometry N in test [2] was determined as 2.
